Data from the supplement of paper PMC11780869.

System: Bacillus subtilis
Test: cleaved RNA product abundance (RNA/gDNA barcode ratio) relative to median wild-type variant (ratio to wild type); higher = more accumulation of the downstream cleavage product
How it was run: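 Reporter mRNAs based on truncated aprE or tetM carried barcoded, mutagenized RNase Y cleavage-site windows built from oligos with a 9% error rate and were integrated into the B. subtilis chromosome. Cultures grew in LB at 37°C from OD600 0.0003 to 0.3. Cleaved RNA was gel-selected, reverse transcribed and barcode-sequenced together with genomic DNA barcodes, and UMIs were collapsed. Cleaved product abundance is the per-construct ratio of RNA to gDNA barcodes, scaled to the median of constructs carrying the unmutated site.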

[1] = experiment (reporter, strain, medium): exp 4a: truncated aprE reporter, strain BJT201 with 2% xylose (RNase J1 expressed), cleavage site: cggR-gapA (positions -7 to +36 mutated)
[2] = experiment (reporter, strain, medium): exp 2b: truncated aprE reporter, strain BJT200, cleavage site: cggR-gapA (positions -7 to +36 mutated)
[3] = experiment (reporter, strain, medium): exp 8a: truncated aprE reporter, strain BJT201 with 2% xylose (RNase J1 expressed), cleavage site: glnRA (positions -5 to +31 mutated)
[4] = experiment (reporter, strain, medium): exp 6: tetM reporter, strain 168, cleavage site: cggR-gapA (positions -7 to +36 mutated)

ACAGACGAAGGAGCCGCACAGAAGTTATAAAGGGATGAATAATCCCTCAATATAAATATCTCTCACTTATTTAAA
cleaved RNA product abundance [1]: 0.414

ACAGACGAAGGAGCCGCAAAGAAGTTATTAAGTGATGAATAATCCCTCAATATAAAAATCTCTCACTTATTTAAA
cleaved RNA product abundance [1]: 0.124

ACAGACGAAGGAGCCGCAAAGAAGTTATTAATGGATGAATAATCCCTCAATATATATATCTCTCACTTATTTAAA
cleaved RNA product abundance [2]: 0.0976 | cleaved RNA product abundance [1]: 0.15

ACAGACGAAGGAGCCGCAAAGAAGTTATTAAGGGATGACTAATCCCTAAATATAAATATCTCTCACTTATTTAAA
cleaved RNA product abundance [1]: 0.359

ACAGACGAAGGAGCCGCAAAGAAGTTATTAAGGGATGAATAATACCTCAATACAAATATCTCTCACTTATTTAAA
cleaved RNA product abundance [1]: 0.0658

CGACATGTCCCGCTTCTTTCATTAATGCGTTAGCAACTGTTTTGCTATATACATTCACCTTTTAAGAGGAGGAAT
cleaved RNA product abundance [3]: 0.329

ACAGACGAAGGAGCCGCAAAGAAGTTATTAAGGGACGAATAATCCCACAATATAAATATCTCTCACTTATTTAAA
cleaved RNA product abundance [2]: 0.13

ACAGACGAAGGAGCCGCAAAGAATTTATTAAGGGAAGAATAATCCCTCAATATAAATATCTCTCACTTATTTAAA
cleaved RNA product abundance [2]: 0.289 | cleaved RNA product abundance [1]: 0.518

CGACATGTCCCGCTTCTTTCATTAATCCATTAGCAACTGTTTTGCTATATAAATTTACCTTTTAAGAGGAGGAAT
cleaved RNA product abundance [3]: 0.754

ACAGACGAAGGAGCCGCAAAGAAGTTATTAAGGTATGAATCATCCCTCAATATAAATATCTCTCACTTATTTAAA
cleaved RNA product abundance [1]: 0.176

ACAGACGAAGGAGTCGCAAAGAAGTTATTAAGGGATGAATAATCCCTCAATATAAATATCTCTCACTTATTTAAA
cleaved RNA product abundance [4]: 1.46

ACAGACGAAGGAGCCGCAAAGAAGTTATTAAGGAATGAATAATCCCCCAATATAAATATCTCTCACTTATTTAAA
cleaved RNA product abundance [2]: 0.122 | cleaved RNA product abundance [1]: 0.115

CGACATGTCCCGCTTCTTTCATTATTCCGTTAGCAACTTTTTTGCTATATACATTTACCGTTTAAGAGGAGGAAT
cleaved RNA product abundance [3]: 2.31

ACAGACGAAGGAGCCGCAAAGAAGTTATTAAGGGATGAATAATCCCTCAGTATAAATATCTCTCACTTATTTAAA
cleaved RNA product abundance [2]: 0.215 | cleaved RNA product abundance [1]: 0.305 | cleaved RNA product abundance [4]: 0.259

ACAGACGAAGGAGCCGCAAAGTAGTTATTAAGGGATGAATAACCCCTCAATATAAATATCTCTCACTTATTTAAA
cleaved RNA product abundance [1]: 0.762

ACAGACGAAGGAGCCGCAAAGAAGTTATTAAGGGATGCGTAATCCCTCAATATAAATATCTCTCACTTATTTAAA
cleaved RNA product abundance [1]: 0.629

ACAGACGAAGGAGCCGCAAAGAAGTTAATAAGGGATAAATAATCCCTCAATATAAATATCTCTCACTTATTTAAA
cleaved RNA product abundance [2]: 0.253 | cleaved RNA product abundance [1]: 0.382

ACAGACGAAGGAGCCGCAAAGAAGTTATTAAGGGATGAATAATCCTACAATATAAATATCTCTCACTTATTTAAA
cleaved RNA product abundance [1]: 0.295

ACAGACGAAGGAGCCGCAAAGAAGTTATTAAGGGAAGAATAACCCCTCAATATAAATATCTCTCACTTATTTAAA
cleaved RNA product abundance [2]: 0.283 | cleaved RNA product abundance [1]: 0.369

ACAGACGAAGGAGCCGCAAAGAAGTTATTAAGGGATGAATAATACCTCGATATAAATATCTCTCACTTATTTAAA
cleaved RNA product abundance [2]: 0.0828 | cleaved RNA product abundance [1]: 0.103

ACAGACGAAGGAGCCGCAAAGAACTTATTCAGGGATGAATAATCCCTCAATATAAATATCTCTCACTTATTTAAA
cleaved RNA product abundance [1]: 0.525

ACAGACGAAGGAGCCGCAAAGAACTTATTAAGGGTTGAATAATCCCTCAATATAAATATCTCTCACTTATTTAAA
cleaved RNA product abundance [2]: 0.218 | cleaved RNA product abundance [1]: 0.232

ACAGACGAAGGAGCCGCAAAGTAGTTAATAATGGATGAATAATCCCTCAATATAAATATCTCTCACTTATTTAAA
cleaved RNA product abundance [1]: 0.0855

ACAGACGAAGGAGCCGCAAAGAAGTTATTAAGGGATGAAAAATCACTCAATATAAATATCTCTCACTTATTTAAA
cleaved RNA product abundance [2]: 0.113 | cleaved RNA product abundance [1]: 0.101

ACAGACGAAGGAGCCGCAAAAAGGTTATTAAGGGATGAATAATCCCTCAATATAAATATCTCTCACTTATTTAAA
cleaved RNA product abundance [1]: 1.68

ACAGACGAAGGAGCCGCAAAGAAGTTATTAAGGGATGAATAATCCCTCATCATAAATATCTCTCACTTATTTAAA
cleaved RNA product abundance [2]: 0.192 | cleaved RNA product abundance [1]: 0.115

ACAGACGAAGGAGCCGCAAAGAAGTTATTAAGGGATGAATAATCCCTCAATAGAAATATCTCTCACTTATTTAAA
cleaved RNA product abundance [2]: 0.164 | cleaved RNA product abundance [1]: 0.111 | cleaved RNA product abundance [4]: 0.165

ACAGACGAAGGAGCCGCAAAGAAGTTATTAAGGAATGAATAATCACTCAATATAAATATCTCTCACTTATTTAAA
cleaved RNA product abundance [2]: 0.111 | cleaved RNA product abundance [1]: 0.124

ACAGACGAAGGAGCCGCAAATAAGTTATTAAGGGATGAATAATCCCTCAATATAAACATCTCTCACTTATTTAAA
cleaved RNA product abundance [2]: 0.822 | cleaved RNA product abundance [1]: 0.822

CGACATGTCCCGCTTCTTTCATTAATCCGTTATCAACTGTTTTGCTATATGCATTTACCTTTTAAGAGGAGGAAT
cleaved RNA product abundance [3]: 0.135

ACAGACGAAGGAGCCGCAAAGAAGTTATTAAGGGATGAATAATCTCTCAATATAAAAATCTCTCACTTATTTAAA
cleaved RNA product abundance [2]: 0.464 | cleaved RNA product abundance [1]: 0.43

ACAGACGAAGGAGCCGCAAAGCAGTTATTAATGGATGAATAATCCCTCAATATAAATATCTCTCACTTATTTAAA
cleaved RNA product abundance [1]: 0.171

ACAGACGAAGGAGCCGCGAAGAAGTTATTAAGGGATGAATAATCTCTCAATATAAATATCTCTCACTTATTTAAA
cleaved RNA product abundance [1]: 0.671

ACAGACGAAGGAGCCGCAAAGAAGTTATTAAGGTTTGAATAATCCCTCAATATAAATATCTCTCACTTATTTAAA
cleaved RNA product abundance [2]: 0.102 | cleaved RNA product abundance [1]: 0.144

ACAGACGAAGGAGCCGCAATGAATTTATTAAGGGATGAATAATCCCTCAATATAAATATCTCTCACTTATTTAAA
cleaved RNA product abundance [1]: 0.786

ACAGACGAAGGAGCCGCAAAGATGTTATTAAGGGATGAATAATCCCTCTATATAAATATCTCTCACTTATTTAAA
cleaved RNA product abundance [1]: 0.447

CGACATGTCCCGCTTCTTTCATTAATCCGTTAGCATCTCTTTTGCTATATACATTTACCTTTTAAGAGGAGGAAT
cleaved RNA product abundance [3]: 0.59

CGACATGTCCCGCTTCTTTCATTAATCCATTAGCAACTGTTTTGCTATATACATTTTACTTTTAAGAGGAGGAAT
cleaved RNA product abundance [3]: 1.24

CGACATGTCCCGCTTCTTTCATTAATCCGTTAGCAACTGATTTGCTATATACATTAACCTTTTAAGAGGAGGAAT
cleaved RNA product abundance [3]: 1.33

CGACATGTCCCGCTTCTTTCATTAATCCGTTAGCAACTGTTTAGCTATATACATTTAACTTTTAAGAGGAGGAAT
cleaved RNA product abundance [3]: 0.462

ACAGACGAAGGAGCCGCAAACAAGTTATTATGGGATGAATAATCCCTCAATATAAATATCTCTCACTTATTTAAA
cleaved RNA product abundance [1]: 0.213

ACAGACGAAGGAGCCGCAAAGAAGTTATTAAGGGATTAATAATCCCTCAATATAAATTTCTCTCACTTATTTAAA
cleaved RNA product abundance [2]: 0.686 | cleaved RNA product abundance [1]: 0.57

ACAGACGAAGGAGCCGCACAGAAGTTATTAAGGGATGAATAATACCTCAATATAAATATCTCTCACTTATTTAAA
cleaved RNA product abundance [2]: 0.118

ACAGACGAAGGAGCCGCAAAGAAGTTAGTAAGGGATGAATAAACCCTCAATATAAATATCTCTCACTTATTTAAA
cleaved RNA product abundance [1]: 0.158

ACAGACGAAGGAGCCGCAAAGAAGTTATTAAGGAATGAATAATCCCACAATATAAATATCTCTCACTTATTTAAA
cleaved RNA product abundance [1]: 0.0935

ACAGACGAAGGAGCCGCAAAGAACTTATAAAGGGATGAATAATCCCTCAATATAAATATCTCTCACTTATTTAAA
cleaved RNA product abundance [2]: 0.24 | cleaved RNA product abundance [1]: 0.263

ACAGACGAAGGAGCCGCAAAGATGTCATTAAGGGATGAATAATCCCTCAATATAAATATCTCTCACTTATTTAAA
cleaved RNA product abundance [1]: 0.205

CGACATGTCCCGCTTCTTTCATTAATCCGTTAGAAAGTGTTTTGCTATATACATTTACCTTTTAAGAGGAGGAAT
cleaved RNA product abundance [3]: 0.368

ACAGACGAAGGAGCCGCAAAGAAGTTAGTAAGGAATGAATAATCCCTCAATATAAATATCTCTCACTTATTTAAA
cleaved RNA product abundance [2]: 0.0912

ACAGACGAAGGAGCCGCAAAGAAGTTATAAAGGGATGAATAAGCCCTCAATATAAATATCTCTCACTTATTTAAA
cleaved RNA product abundance [1]: 0.172

ACAGACGAAGGAGCCGCAAAGCAGTTATTAAGGGAAGAATAATCCCTCAATATAAATATCTCTCACTTATTTAAA
cleaved RNA product abundance [1]: 0.561

CGACATGTCCCGCTTCTTTCATTAATCCGTTATCAACTCTTTTGCTATATACATTTACCTTTTAAGAGGAGGAAT
cleaved RNA product abundance [3]: 0.252

CGACATGTCCCGCTTCTTTCATTAATCAGTTAGCAACTGTTTAGCTATATACATTTACCTTTTAAGAGGAGGAAT
cleaved RNA product abundance [3]: 0.775

CGACATGTCCCGCTTCTTTCATTAATCCGTTAGCAACTGTTATGATATATACATTTACCTTTTAAGAGGAGGAAT
cleaved RNA product abundance [3]: 0.387

ACAGACGAAGGAGCCGCTATGAAGTTATTAAGGGATGAATAATCCCTCAATATAAATATCTCTCACTTATTTAAA
cleaved RNA product abundance [1]: 0.952

CGACATGTCCCGCTTCTTTCATTAATTCGTTAGCAACTGTTTTGCTATATACAATTACCTTTTAAGAGGAGGAAT
cleaved RNA product abundance [3]: 1.18

ACAGACGAAGGAGCCGCAATGAAGTTATTAAGGGATGAATAATCCTTCAATATAAATATCTCTCACTTATTTAAA
cleaved RNA product abundance [1]: 0.581

ACAGACGAAGGAGCCGCAAAGAAGTTATTTAGGGATCAATAATCCCTCAATATAAATATCTCTCACTTATTTAAA
cleaved RNA product abundance [1]: 0.787

CGACATGTCCCGCTTCTTTCATTAATCCGTTAGCAACTGTGTTGCTATATACATTTACCATTTAAGAGGAGGAAT
cleaved RNA product abundance [3]: 0.38

ACAGACGAAGGAGCCGCAAAGAAGTTATTAAGGGATGAATAATCCCTAAATTTAAATATCTCTCACTTATTTAAA
cleaved RNA product abundance [2]: 0.162
